Where no end group is shown, it is not given here.
Key:
[1] = molecular target: physiologic human von Willebrand factor (VWF) (human, UniProt P04275 764-2813)
[2] = molecular target: FVIII free human von Willebrand factor (VWF) (human, UniProt P04275 764-2813)

B1: VWF-binding peptide (VBP), FVIII-derived, decorated on liposomal nanoconstructs (peptide)
peptide: TRYLRIHPQSWVHQI
modifications: also: lipid-peptide bioconjugate, displayed on liposome surface
Q: Which results are given for B1?
A: binding result [1]: binds; binding result [2]: binds
